Values quoted from earlier work, collected in PMC5576018.

Target: CSL (Homo sapiens) (UniProt Q06330)
Chain of UniProt Q06330 (Q06330 whole entry): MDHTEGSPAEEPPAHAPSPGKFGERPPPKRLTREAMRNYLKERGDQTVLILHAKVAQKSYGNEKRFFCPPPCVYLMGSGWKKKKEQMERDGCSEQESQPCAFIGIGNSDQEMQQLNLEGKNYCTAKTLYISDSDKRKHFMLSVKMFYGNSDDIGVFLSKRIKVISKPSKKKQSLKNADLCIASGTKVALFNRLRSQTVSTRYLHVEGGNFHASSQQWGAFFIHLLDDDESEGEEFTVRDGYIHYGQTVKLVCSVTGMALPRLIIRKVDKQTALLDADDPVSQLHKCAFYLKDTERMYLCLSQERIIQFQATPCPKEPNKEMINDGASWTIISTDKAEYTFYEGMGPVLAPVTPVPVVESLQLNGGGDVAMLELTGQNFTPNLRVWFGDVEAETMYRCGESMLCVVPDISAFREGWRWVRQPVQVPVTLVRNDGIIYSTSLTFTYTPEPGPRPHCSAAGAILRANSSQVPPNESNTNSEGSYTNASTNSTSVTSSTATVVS

Kd: 22 nM
Substance: Notch RAM RAM (from UniProt P46531)
